Here are results for 14 sequences from a protein production outcome set (Wang et al. 2014).
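Further: failed if final PepcDB status was selected cloned or expressed and not failed if soluble or beyond.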

The data set is described as follows: label from the status in PepcDB records.
As for “MHLSLMISRHYINRMKLSLMHISILAGIPEEFKVNIYIGWLFKLIPLIMGLICIALGGFVLESSGQSEYFVAGHVLISLAAICLALFTTAFIIISQLTRGVNTFYNTLFPIIGYAGSIITMIWGWALLAGNDVMADEFVAGHVIFGVGMIAACVSTVAASSGHFLLIPKNAAGSKSDGTPVQAYSSLIGNCLIAVPVLLTLLGFIWSITLLRSADITPHYVAGHVLLGLTAICACLIGLVATIVHQTRNTFSTKEHWLWCYWVIFLGSITVLQGIYVLVSSDASARLAPGIILICLGMICYSIFSKVWLLALVWRRTCSLANRIPMIPVFTCLFCLFLASFLAEMAQTDMGYFIPSRVLVGLGAVCFTLFSIVSILEAGSAKK”, the protein production entry is on record as “failed”.
To “MATPFWYNAALKVLKPVYRWRIKKRAENEMRYQQECRERFGPFQQPQNRHALWFHAVSVGETNAAQPLIEYYLKLGHPVLVTNTTKTGQARAKSLFLKSPYLELFQAVYLPVDQIFLLKQFFELYQPKLLALVETELWPNLIDQAQHYGVPTFLINARLSEKSAQGYARVSALSNAMLSRLTGLLAQDQSTQQRFIGLGLAREKAQVVGNIKFDIDVPLLFVEQARRLQQQWQLAGRKIMVLASTHAPEEQQLLTALKTHLMADPDLLCIVVPRHPERFDEVFQICQNLQLDTARRSLEQPIQPETQVYLADSMGELWLWYALAQTAFVGGSLNEPGGGHNILEPMALKIPVVIGPRYFNFQTIVDEFRETEAIDIVQDATQAVRQLLHYVSTPNSADQIVDHAQSILQRNKGSLARHIHVLDQYLS” belongs “failed”; to “MSEDAWKVNLIGNDEVHDLYTIVGNAAKQSMARDTDPMVSTILAYEGDWRKVFKRNTMTTFYGSKGFGMAQQHMDDLMEPLSREVMQKKRAKHPFGQTRKEHHAASRLLAAHAAAAIKGEIPLAIKAMEFIQKLSAMMAHEGKPLEWTTPIGLPWSNRYHDPVTERVNLWMHDHGVRRPFRPVVADGYKKTINKNHSVNGSAPNFVHALEHHHHHH”, “failed”.
Then “MKLIAAGLTLIFLGFILLFLGVVLQVQTPQTTTSSSPQFAGLVLLGPIPIAFGNVPPSVLSNLIIVGVVFTIIMLIIYLIMFIIGRKTTRAPF”, with “failed”; and “MDAAVTDDFQQILPIEQLRSTHASNDYVERPPAPCKQALSSPSLIVQTHKSDWSLATMPTSLPRSLSQCHQLQPLPQHLSQSSIASSMSHSTTASDQRLLASITPSPSGQSIIRTQPGAGVHPKADGALKGEAEQSAGHPSEHLFICEECGRCKCVPCTAARPLPSCWLCNQRCLCSAESLLDYGTCLCCVKGLFYHCSTDDEDNCADEPCSCGPSSCFVRWAAMSLISLFLPCLCCYLPTRGCLHLCQQGYDSLRRPGCRCKRHTNTVCRKISSGSAPFPKAQEKSV”, with “failed”; and “LFQRVLYATDFSENATRAFDAFQYLRHATQEATLVHVESPKDATSEADPAEQLASLADTLSQWDIETNVEVRRGDPAEEILDVEAAVTPTTTLVGSRGQSRMRRLLLGSVSEDIIAQATGNVYLVPPP”, with “failed”.
Then “KNRIGTKALNFTYTLASGAQGSLYQLKAEYLLLFINNPGCQACTETIEGLKNAPIINQLLQEKKLVLLSIYPDEELDEWKKHLSEFPNEWINGYDKKFTIKEEQVYDLKAIPTLYLLDKDKTVLLKDATAPAIEAYLMQH”, with “not failed”; and “MSEHHHDHSHDHGHAGHQYHAVGSIQIAFFMNFGFTILEAIGGVMTNSTAILANAVHDFGDSIAVGQAWYFEKLSGRTGDKRYSYGYQRFSIFGALVSALMMLASSFLVLVEAVPRLLHPEHPNAKGMVAFALVGVAVNALAMLRLKGQAGMNARVIALHLLEDVLGWLSVLLVSVVLLFTSLPILDPLLAIVITLYILTGVVKNLRAMVPVFLQAVPSELSLDKVVADIQQTEHVTGVHHAHLWSLDGQRTVFTAHLEIGCDVNPAEYASIKEEIRKLVARHGIYHSTVELEYPGEVCRNESHKDG”, with “failed”; and “MRLILNLIWLFFGGIWLALGYVFFGIIACIFIVTIPAGIASFRMANYALWPFGRTVVRNPKAGGFSALSNGLWFIIAGLWLAIGHLTTAAAQAITIIGIPLAIANIRMIPVTCFPFGKEIYDSNRIPFGYEPMVKF”, with “failed”.
As to “MAYDNRAVVRKVLLITLLLNLFVMGLKAFVGYLTGSLSLLADALHSVTDSANNILGLFASSFSSPYPDREHPYGHHKFEAVGALGIAAFLGIACFEILQGAIERILKGGAPVRISPPELWLLLIVLGVNIFVAFYERNEGKRVGSQILIADATHTMSDVWVTISVIFGLIGVWLGYQWLDIVLAFPVALLVFWSGWSVLKENLPWLVDQMAIAPEAIHAIAVAVPGVINCHDIASRGVLGRQIFMEMHLIVDAPDVETAHRITEEVERRLEERFSPVRIIIHVEPPNYESEQISFETGSK”, the protein production entry was “failed”.
To “MVGERMWWWSSSSTKLRSNLERFLRGITPKPPSFSLSQSCKNDLNSLWIHENKDEIEYFRLSDLWDCFDEPSAYGLGSKVDLNNGESVMQYYVPYLSAIQIYTNKSTAISRIHSDVVDCESECWSDDSEIEKLSRSMSSGSSKIWDSVSDDSGYEIDGTSSLMRDKLGSIDFQYFESVKPHLRVPLTAKVNELAEKYPGLSTLRSVDLSPASWLAIAWYPIYHIPSRKTDKDLSTCFLSYHTLSSAFQGNLIEGDDEINETMKEETLCFDEGPVTKSIPLAPFGLVSYKLQGDLWRNQECGDQGRIVYLRSAADSWLKQLNVQDHHDHSFFSMNMSL” belongs “failed”; to “MSLTKIDAYAHILPAKYYQKMLSVEPNIPNMFPFIKIKTLMDLDERLTKWPDQNTKQVISLANISPEDFTDSKTSAELCQSANEELSNLVDQHPGKFAGAVAILPMNNIESACKVISSIKDDENLVGAQIFTRHLGKSIADKEFRPVLAQAAKLHVPLWMHPVFDARKPDNNLVFSWEYELSQAMLQLVQSDLFQDYPNLKILVHHAGAMVPFFSGRIDHILDEKHAQDFKKFYVDTAILGNTPALQLAIDYYGIDHVLFGTDAPFAVMPSGADQIITQAINDLTISDKDKQKIFHDNYYSLIKEGHHHHHH”, “not failed”.
With “MVLDVFIEVSLVIFVAFLISLVMRMLKQPLIIGYILTGILVSPYFLNIVRFEESISTLGHYGVTILLFMVGISLNPGYFKEIGKISVITGLGQIVFTFSIGFLISIFLGYSYIESMYISIALTFSSTIIIMKLISDKGDIDKLYGKISIGFLIVQDIVAMAILILISAFNVQSGAGELLFLLLSKIVLILTAIYIFTKYALSNFISYASKNQEFLFLFSLMWCFTLASIFHLLGFSSEIGALIAGIVLAMFPERYEIASKVRPLRDFFLILFFVVLGVQMTFETSGSFLIPAIILSIFVLFGNPIIVMILMGAFGYTKKTGFLAGLTVAQISEFSLIIASLGLRNGHLSQGIVSMITLIGIITIAGSSYFITYSEKIYSLLSNYLSIFEKKTKMSEKDFKNKNTGEIILFGADRTGKNILNVIENSKERFLIIDYNPKIIKDLSKRGYNSIYGDASNLELLNELNFKESKMLISTISDIETDILLIKTILKSNKNAIIIVIAHKIEDAIKLYEEGASYVIMPHFLGSIHASLMIQKYGLNIEEFLKEKSNHMESLKKSQELFRHTK”, the protein production entry is recorded as “failed”.
“MEKHSHEHHHHHDISSISKNKLFFVIIFNFIIALAEVIGGSISGSLSLISDALHNLSDTASLILSYVSIKISEKPKNKAKTYGYKRANILAAFINSAALIGISIFLGVQALEKLTSLKKINANIVIVVALIGLLGNFLSVIILKKGAEKSLNVRSSYLHMLSDAMASLAVIISGVFIKYFAIYWIDSVLTIFINMLILKSSYNILKESINILMQTTPVNLDMDDVKEQLLKIKEIKGVHHFHIWTLDENNIVLEGHIEIDDILVSETRAISDKIEHILNEDFHITHVVIQFESTSCEDNICKI”: the protein production result is “failed”.
